Experimental data reported in paper PMC9482650, “Quantitative fragmentomics allow affinity mapping of interactomes” (Nature Communications, 2022).

Columns and labels:
Assay in all cases: holdup assay
Parameters in all cases: key: below the threshold = too weak to quantify, mostly under pKd 3.1 to 4
Conditions in all cases: plain residues with an end cap or a label only (N-terminal biotin on a linker: ado-ado)
[1] = molecular target: T1, TIAM2, Q8IVF5
T1 sequence (Q8IVF5 885-986, limits assumed, looked up): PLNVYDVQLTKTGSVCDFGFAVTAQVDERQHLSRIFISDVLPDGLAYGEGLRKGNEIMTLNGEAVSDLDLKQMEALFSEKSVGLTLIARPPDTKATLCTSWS

[2] = molecular target: CASK, O14936
[3] = molecular target: DLG1_2, Q12959
[4] = molecular target: SCRIB_1, Q14160
[5] = molecular target: GIPC2, Q8TF65
[6] = molecular target: T2, TJP3_3, O95049
T2 sequence (O95049 375-456, limits assumed, looked up): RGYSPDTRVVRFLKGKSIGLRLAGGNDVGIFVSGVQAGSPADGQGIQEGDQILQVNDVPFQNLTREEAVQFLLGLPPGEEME

[7] = molecular target: T3, LRRC7, Q96NW7
T3 sequence (Q96NW7 1440-1537, limits assumed, looked up): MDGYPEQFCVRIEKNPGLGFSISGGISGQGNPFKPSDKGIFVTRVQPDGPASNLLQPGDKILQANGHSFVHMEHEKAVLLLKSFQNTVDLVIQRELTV

[8] = molecular target: NHERF4_2, Q86UT5
[9] = molecular target: DLG1_1, Q12959
[10] = molecular target: T4, NHERF3_1, Q5T2W1
T4 sequence (Q5T2W1 4-100, limits assumed, looked up): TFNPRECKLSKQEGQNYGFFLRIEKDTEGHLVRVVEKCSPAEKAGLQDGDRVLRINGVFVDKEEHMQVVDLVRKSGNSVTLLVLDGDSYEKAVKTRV

[11] = molecular target: T5, SIPA1L2, Q9P2F8
T5 sequence (Q9P2F8 945-1036, limits assumed, looked up): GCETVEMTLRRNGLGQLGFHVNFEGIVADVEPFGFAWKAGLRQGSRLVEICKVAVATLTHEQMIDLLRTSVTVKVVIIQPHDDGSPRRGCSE

[12] = molecular target: GRIP2_6, Q9C0E4
[13] = molecular target: T6, APBA1_2, Q02410
T6 sequence (Q02410 742-832, limits assumed, looked up): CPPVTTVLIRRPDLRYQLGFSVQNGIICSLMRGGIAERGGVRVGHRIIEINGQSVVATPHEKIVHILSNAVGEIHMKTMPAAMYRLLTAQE

[14] = molecular target: T7, PDZD7_3, Q9H5P4
T7 sequence (Q9H5P4 857-944, limits assumed, looked up): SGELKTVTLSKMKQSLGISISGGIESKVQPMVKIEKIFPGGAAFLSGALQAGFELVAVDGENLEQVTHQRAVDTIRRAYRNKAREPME

[15] = molecular target: MAST1, Q9Y2H9
[16] = molecular target: T8, APBA2_1, Q99767
T8 sequence (Q99767 563-664, limits assumed, looked up): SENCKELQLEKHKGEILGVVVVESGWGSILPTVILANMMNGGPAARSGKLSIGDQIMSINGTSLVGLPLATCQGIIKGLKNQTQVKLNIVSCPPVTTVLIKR

[17] = molecular target: T9, HTRA4, P83105
T9 sequence (P83105 378-476, limits assumed, looked up): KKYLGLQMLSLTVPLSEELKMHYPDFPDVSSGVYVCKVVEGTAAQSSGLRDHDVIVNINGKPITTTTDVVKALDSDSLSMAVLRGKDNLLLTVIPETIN

[18] = molecular target: DLG1_3, Q12959
[19] = molecular target: T10, GRIP1_5, Q9Y3R0
T10 sequence (Q9Y3R0 568-668, limits assumed, looked up): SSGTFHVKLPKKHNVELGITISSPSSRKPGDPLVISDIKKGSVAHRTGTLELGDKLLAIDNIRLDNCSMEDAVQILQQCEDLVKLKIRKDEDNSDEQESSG

[20] = molecular target: T11, DFNB31_1, Q9P202
T11 sequence (Q9P202 135-233, limits assumed, looked up): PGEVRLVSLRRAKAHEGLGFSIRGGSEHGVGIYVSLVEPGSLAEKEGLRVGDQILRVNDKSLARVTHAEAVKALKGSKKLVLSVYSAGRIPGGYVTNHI

[21] = molecular target: T12, LNX2_3, Q8N448
T12 sequence (Q8N448 463-564, limits assumed, looked up): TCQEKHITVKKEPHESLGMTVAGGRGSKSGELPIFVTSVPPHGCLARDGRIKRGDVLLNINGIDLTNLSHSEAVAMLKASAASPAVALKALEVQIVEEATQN

[22] = molecular target: Inadl_3, Q8NI35
[23] = molecular target: MAGI2_6, Q86UL8
[24] = molecular target: NHERF2_2, Q15599
[25] = molecular target: T13, DFNB31_2, Q9P202
T13 sequence (Q9P202 274-371, limits assumed, looked up): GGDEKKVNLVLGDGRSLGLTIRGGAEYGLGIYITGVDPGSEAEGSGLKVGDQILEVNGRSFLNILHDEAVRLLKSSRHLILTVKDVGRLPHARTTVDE

MAGI2_6, Q86UL8, sequence (Q86UL8 1141-1229): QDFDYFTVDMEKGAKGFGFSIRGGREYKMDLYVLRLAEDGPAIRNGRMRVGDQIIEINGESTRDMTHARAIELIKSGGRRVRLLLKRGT
CASK, O14936, sequence (O14936 487-570): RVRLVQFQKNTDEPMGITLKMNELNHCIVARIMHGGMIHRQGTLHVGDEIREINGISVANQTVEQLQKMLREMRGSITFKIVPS
SCRIB_1, Q14160, sequence (Q14160 718-814): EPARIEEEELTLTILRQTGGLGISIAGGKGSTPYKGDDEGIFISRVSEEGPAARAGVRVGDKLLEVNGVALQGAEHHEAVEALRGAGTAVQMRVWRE
NHERF4_2, Q86UT5, sequence (Q86UT5 220-308): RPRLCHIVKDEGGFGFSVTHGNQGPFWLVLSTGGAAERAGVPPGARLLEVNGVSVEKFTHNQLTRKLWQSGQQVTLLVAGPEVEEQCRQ
GIPC2, Q8TF65, sequence (Q8TF65 112-203): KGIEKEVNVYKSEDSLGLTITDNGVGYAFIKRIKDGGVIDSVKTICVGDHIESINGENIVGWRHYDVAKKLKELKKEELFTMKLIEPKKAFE
Inadl_3, Q8NI35, sequence (Q8NI35 359-469): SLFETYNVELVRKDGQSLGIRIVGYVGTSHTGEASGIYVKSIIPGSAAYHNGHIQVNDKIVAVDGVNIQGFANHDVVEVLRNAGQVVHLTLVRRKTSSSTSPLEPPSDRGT
NHERF2_2, Q15599, sequence (Q15599 142-238): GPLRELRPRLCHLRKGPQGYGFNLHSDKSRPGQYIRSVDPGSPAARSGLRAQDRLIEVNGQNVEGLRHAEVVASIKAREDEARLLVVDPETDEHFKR
GRIP2_6, Q9C0E4, sequence (Q9C0E4 648-740): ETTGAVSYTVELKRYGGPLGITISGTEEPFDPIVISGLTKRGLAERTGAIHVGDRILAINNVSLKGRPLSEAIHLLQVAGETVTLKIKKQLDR
MAST1, Q9Y2H9, sequence (Q9Y2H9 962-1065): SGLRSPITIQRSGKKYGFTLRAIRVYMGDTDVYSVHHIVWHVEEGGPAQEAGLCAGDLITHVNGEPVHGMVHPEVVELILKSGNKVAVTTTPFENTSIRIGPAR

With PAPGQHTTQI [STK16, O75716] the pKd [1] was 3.97, the pKd [2] was “below the threshold” and the pKd [3] was 3.73. For the same binder, the pKd [4] was 3.84, the pKd [5] was “below the threshold” and the pKd [6] was “below the threshold”. The pKd [7] was “below the threshold”, the pKd [8] was “below the threshold” and the pKd [9] was 3.56. For the same binder, the pKd [10] was 4.26, the pKd [11] was “below the threshold” and the pKd [12] was “below the threshold”. The pKd [13] was “below the threshold”, the pKd [14] was 5 and the pKd [15] was 4.37. For the same binder, the pKd [16] was “below the threshold”, the pKd [17] was 3.8 and the pKd [18] was 3.71. The pKd [19] was “below the threshold”, the pKd [20] was 4.57 and the pKd [21] was “below the threshold”. The pKd [22] was “below the threshold”, the pKd [23] was “below the threshold” and the pKd [24] was 3.78. The pKd [25] was “below the threshold”.

For PASAKGPLGV [CLDN19, Q8N6F1], the pKd [1] was “below the threshold”, the pKd [2] was “below the threshold” and the pKd [3] was “below the threshold”. For the same binder, the pKd [4] was “below the threshold”, the pKd [5] was “below the threshold” and the pKd [6] was “below the threshold”. The pKd [7] was “below the threshold”, the pKd [8] was “below the threshold” and the pKd [9] was “below the threshold”. The pKd [10] was “below the threshold”, the pKd [11] was “below the threshold” and the pKd [12] was “below the threshold”. The pKd [13] was “below the threshold”, the pKd [14] was “below the threshold” and the pKd [15] was 3.69. The pKd [16] was “below the threshold”, the pKd [17] was “below the threshold” and the pKd [18] was “below the threshold”. The pKd [19] was “below the threshold”, the pKd [20] was “below the threshold” and the pKd [21] was “below the threshold”. For the same binder, the pKd [22] was “below the threshold”, the pKd [23] was “below the threshold” and the pKd [24] was “below the threshold”. For the same binder, the pKd [25] was “below the threshold”.

With DSATVRTYSC [PPFIA1, Q13136] the pKd [1] was 4.19, the pKd [2] was “below the threshold” and the pKd [3] was “below the threshold”. The pKd [4] was “below the threshold”, the pKd [5] was “below the threshold” and the pKd [6] was “below the threshold”. The pKd [7] was “below the threshold”, the pKd [8] was “below the threshold” and the pKd [9] was “below the threshold”. The pKd [10] was 3.77, the pKd [11] was “below the threshold” and the pKd [12] was 5.71. For the same binder, the pKd [13] was “below the threshold”, the pKd [14] was “below the threshold” and the pKd [15] was “below the threshold”. For the same binder, the pKd [16] was “below the threshold”, the pKd [17] was “below the threshold” and the pKd [18] was “below the threshold”. For the same binder, the pKd [19] was “below the threshold”, the pKd [20] was 3.47 and the pKd [21] was “below the threshold”. For the same binder, the pKd [22] was “below the threshold”, the pKd [23] was “below the threshold” and the pKd [24] was “below the threshold”. For the same binder, the pKd [25] was “below the threshold”.

In the case of QFTLRHWLKV [SLC6A3, Q01959], the pKd [1] is reported as 4.46, the pKd [2] is reported as “below the threshold” and the pKd [3] is reported as “below the threshold”. The pKd [4] was “below the threshold”, the pKd [5] was “below the threshold” and the pKd [6] was “below the threshold”. The pKd [7] was “below the threshold”, the pKd [8] was “below the threshold” and the pKd [9] was “below the threshold”. For the same binder, the pKd [10] was 3.77, the pKd [11] was 3.89 and the pKd [12] was 3.9. The pKd [13] was “below the threshold”, the pKd [14] was “below the threshold” and the pKd [15] was 4.24. The pKd [16] was 3.48, the pKd [17] was 4.1 and the pKd [18] was “below the threshold”. The pKd [19] was “below the threshold”, the pKd [20] was 3.47 and the pKd [21] was “below the threshold”. For the same binder, the pKd [22] was “below the threshold”, the pKd [23] was “below the threshold” and the pKd [24] was “below the threshold”. The pKd [25] was “below the threshold”.
